Measurements published in publication PMC5859130, “Ixonnexin from Tick Saliva Promotes Fibrinolysis by Interacting with Plasminogen and Tissue-Type Plasminogen Activator, and Prevents Arterial Thrombosis” (Scientific Reports, 2018).

How the values were obtained:
Factor Xa = test: cell-based or functional assay
[1] = biological target: the molecule itself; test: SEC; Superdex 75 10/300, 20 mM Tris-HCl, 0.15 M NaCl, pH 8, 0.5 mL/min; column calibrated with salivary proteins of known mass
Lys-plasminogen = biological target: T1, Lys-plasminogen (UniProt P00747 97-810); test: SPR; Ixonnexin amine-coupled to a carboxymethylated dextran (CM5) chip, 726.2 RU; analytes injected 120 s at 30 µL/min, 25 °C, dissociation 600 s; global fit with the two-state (conformational change) model, Langmuir 1:1 for plasmin; conditions: both partners purified
T1 construct: source: bought: Enzyme Research Laboratories or Innovative Research
T1 sequence (P00747 97-810): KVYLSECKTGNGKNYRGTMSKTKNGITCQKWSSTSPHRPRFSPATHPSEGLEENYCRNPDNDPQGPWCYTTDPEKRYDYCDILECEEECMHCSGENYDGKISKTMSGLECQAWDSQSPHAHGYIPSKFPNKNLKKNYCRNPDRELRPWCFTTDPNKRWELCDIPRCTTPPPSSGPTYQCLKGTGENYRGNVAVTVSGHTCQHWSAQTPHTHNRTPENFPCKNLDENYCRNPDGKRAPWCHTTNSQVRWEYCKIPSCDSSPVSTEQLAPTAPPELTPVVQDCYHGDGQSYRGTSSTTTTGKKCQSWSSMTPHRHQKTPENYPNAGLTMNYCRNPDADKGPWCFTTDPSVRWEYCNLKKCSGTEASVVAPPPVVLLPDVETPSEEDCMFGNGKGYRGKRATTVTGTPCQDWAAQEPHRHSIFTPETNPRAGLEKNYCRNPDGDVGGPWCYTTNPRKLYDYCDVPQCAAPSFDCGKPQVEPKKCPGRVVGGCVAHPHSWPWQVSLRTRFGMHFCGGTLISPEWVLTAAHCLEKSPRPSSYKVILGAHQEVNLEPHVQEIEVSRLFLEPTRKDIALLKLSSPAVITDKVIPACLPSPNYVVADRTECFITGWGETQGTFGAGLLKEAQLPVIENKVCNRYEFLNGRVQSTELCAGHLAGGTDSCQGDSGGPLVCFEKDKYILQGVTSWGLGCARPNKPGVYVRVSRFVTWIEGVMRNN

Factor Xa, sequence (P00742 32-488): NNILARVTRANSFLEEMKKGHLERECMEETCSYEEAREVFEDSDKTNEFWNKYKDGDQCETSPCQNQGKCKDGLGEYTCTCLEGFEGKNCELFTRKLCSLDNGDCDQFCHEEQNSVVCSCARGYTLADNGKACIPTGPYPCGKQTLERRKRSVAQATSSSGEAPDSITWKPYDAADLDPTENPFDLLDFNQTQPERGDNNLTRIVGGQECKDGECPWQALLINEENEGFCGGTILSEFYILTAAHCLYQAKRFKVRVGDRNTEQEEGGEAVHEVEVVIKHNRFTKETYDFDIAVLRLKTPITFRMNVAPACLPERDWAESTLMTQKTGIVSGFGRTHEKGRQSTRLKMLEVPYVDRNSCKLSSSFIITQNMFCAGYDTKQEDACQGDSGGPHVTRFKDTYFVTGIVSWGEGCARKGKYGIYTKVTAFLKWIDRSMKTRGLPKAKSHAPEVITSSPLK

B1: Ixonnexin (natural protein)
chain: HNCQNGTRPASEENREGCDYYCWNAETKSWDQFFFGNGERCFYNTGEKGTCLNGECHLTTSSGGPDDTGDNTPPPTEKPKQKKKKPKKTKKPKRKSKKDQKENF
notes: Ixonnexin, 'Basic-tail' family salivary protein of Ixodes scapularis (gi 67083505); the precursor has a signal peptide of 21 residues (cut between Ala21 and His22); the mature protein of 104 residues was synthesized; numbers count on: the mature protein; 3 disulfide bonds after folding; Gel filtration is consistent with a non-covalent dimer; mass spectrometry gave a single monomeric mass; also …
amidolytic activity of FXa (0.33 nM) on a fluorogenic substrate, enhanced by Ixonnexin: IC50 (Factor Xa): 9.73 nM
stoichiometry N [1]: 2
Kd (Lys-plasminogen): 14.4 nM
